Substitutions are numbered along the chain they refer to. Names may count otherwise.
B1: TRIM21 RING E13A (protein)
chain: MASAARLTMMWEAVTCPICLDPFVEPVSIECGHSFCQECISQVGKGGGSVCPVCRQRFLLKNLRPNRQLANMVNNLKEISQEARE
B2: TRIM21 RING E13R (protein)
chain: B1 chain with A13R

Target: ubiquitin, P0CG48
Sequence (P0CG48 whole entry, looked up): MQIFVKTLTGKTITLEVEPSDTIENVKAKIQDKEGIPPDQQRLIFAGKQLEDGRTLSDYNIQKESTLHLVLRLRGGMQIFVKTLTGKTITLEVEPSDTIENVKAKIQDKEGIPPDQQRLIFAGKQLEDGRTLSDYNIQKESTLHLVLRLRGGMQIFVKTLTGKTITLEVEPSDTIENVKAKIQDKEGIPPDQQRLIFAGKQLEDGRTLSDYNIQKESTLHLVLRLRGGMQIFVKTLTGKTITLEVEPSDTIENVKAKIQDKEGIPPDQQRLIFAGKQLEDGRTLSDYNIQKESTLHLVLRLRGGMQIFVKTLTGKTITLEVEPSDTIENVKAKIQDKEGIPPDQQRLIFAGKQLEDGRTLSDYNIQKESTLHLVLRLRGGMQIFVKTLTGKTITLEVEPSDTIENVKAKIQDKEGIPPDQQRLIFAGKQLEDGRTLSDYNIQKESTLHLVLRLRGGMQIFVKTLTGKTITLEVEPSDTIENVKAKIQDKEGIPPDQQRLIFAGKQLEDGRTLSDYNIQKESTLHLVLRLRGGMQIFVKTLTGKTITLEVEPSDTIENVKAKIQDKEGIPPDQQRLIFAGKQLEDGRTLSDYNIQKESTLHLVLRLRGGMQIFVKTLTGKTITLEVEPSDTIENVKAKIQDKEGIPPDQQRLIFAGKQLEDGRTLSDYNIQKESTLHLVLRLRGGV

Protein	Ube2W-mediated TRIM21 RING monoubiquitination time-course
B1	TRIM21 mutants E13A and E13R both showed a slight reduction in activity
B2	TRIM21 mutants E13A and E13R both showed a slight reduction in activity

Reference: patent US20250376495
